Consider one protein from patent US20110289632A1, “METHYLKETONE SYNTHASE, PRODUCTION OF METHYLKETONES IN PLANTS AND BACTERIA” (The Regents of the University of Michigan, priority 2009, published 2011).

Substrate in this data set: CCCCCCCCCCCC(=O)CC(=O)O
The experiment in a line: Steady-state kinetic decarboxylase assay (3-ketomyristic acid to 2-tridecanone, GC-MS). Type of data set: biochemical, Solanum habrochaites f glabratum. The conditions noted are these: other: ShMKS1 decarboxylase, substrate 5 μM to 75 μM, pH 7.0, 23° C., 10 min. On the procedure: To examine the possible decarboxylase activity of ShMKS1 as well as ShMKS2 in vitro, we tested homogenous recombinant ShMKS1 and partially purified recombinant ShMKS2 proteins (without their transit peptides) for their ability to convert 3-ketomyristic acid into its 2-tridecanone decarboxylated product. […] In steady-state kinetic assays, ShMKS1 was determined to have a KM of 18.4±5.6 μM for 3-ketomyristic acid, with an apparent kcat of 227.9±24.1 min^−1.
His-tagged ShMKS1 and ShMKS2 were affinity-purified on Nickel-agarose chromatography using the protocol described in Fridman et al., (2005) Metabolic, genomic, and biochemical analyses of glandular trichomes from the wild tomato species Lycopersicon hirsutum identify a key enzyme in the biosynthesis of methylketones, Plant Cell 17: 1252-1267. After elution from the Nickel-agarose column, the proteins were analyzed by SDS-PAGE and ShMKS2 dialyzed against 50 mM phosphate buffer pH 6.8, 500 mM NaCl, and 1M (NH4)2SO4, and 2 mM DTT and ShMKS1 dialyzed against 12.5 mM phosphate buffer pH 6.8, 50 mM NaCl, and 2 mM DTT. ShMKS1 purity was estimated at 99%, and ShMKS2 purity was estimated at 6%.
A typical decarboxylase assay consisted of a 500 μL reaction solution containing ShMKS1 or ShMKS2 (2.5 μg), 3-ketomyristic acid (0.1 mM), and 1,3-bis(tris(hydroxymethyl)methylamino) propane—Na^+ (20 mM, pH 7.0). […]

B1: Solanum habrochaites f glabratum methylketone synthase 1 (ShMKS1), recombinant His-tagged, SEQ ID NO: 17 (Solanum habrochaites) (protein)
chain: MEKSMSPFVKKHFVLVHTAFHGAWCWYKIVALMRSSGHNVTALDLGASGINPKQALQIPNFSDYLSPLMEFMASLPANEKIILVGHALGGLAISKAMETFPEKISVAVFLSGLMPGPNIDATTVCTKAGSAVLGQLDNCVTYENGPTNPPTTLIAGPKFLATNVYHLSPIEDLALATALVRPLYLYLAEDISKEVVLSSKRYGSVKRVFIVATENDALKKEFLKLMIEKNPPDEVKEIEGSDHVTMMSKPQQLFTTLLSIANKYK
notes: no cleavable transit peptide, 265-residue protein
As for B1, the Km amounted to 18.4 ± 5.6 µM and the kcat amounted to 3.798 ± 0.402 s⁻¹.

Broadly, the Km is the concentration of substrate that gives half-maximal velocity. One may read the kcat as the number of substrate molecules converted per active site and unit of time at saturation.
